The values that follow come from patent US20110293610A1 (published 2011).

Assay [1] addresses T1, HIS-tagged B Lymphocyte Stimulator (human, UniProt Q9Y275 71-285).
T1 construct: Expressed in E. coli from pQE9 and purified; also called histidine-tagged B Lymphocyte Stimulator; HIS-B Lymphocyte Stimulator; not shown: histidine tag of the pQE9 vector
The experiment in a line: BIAcore, periplasmic scFv on high density HIS-BLyS surface. How it is done:
(§1) All BIAcore analysis was performed on BIAcore 2000 machines, using the BIAcore 2000 control software and evaluated using the BIAevaluation 3.0 software. A high density His-tagged B Lymphocyte Stimulator surface (>1000 RU HIS-B Lymphocyte Stimulator coupled) was prepared in flow cell 2 by amine coupling to a CM5 chip. A new CM5 chip was inserted into the BIAcore and a sensorgram started over flow cell 2 with HBS buffer at a flow rate of 5 μl/min. The NHS and EDC solution were mixed 1:1 before injecting 30 μl over the CM5 surface. Fifty μl HIS-B Lymphocyte Stimulator (at 10 μg/ml in Sodium acetate buffer, pH4) was injected and allowed to couple to the surface. Thirty μl of ethanolamine-HCl solution was then injected to block free NHS esters. Prior to using the chip, 10 μl of 4M Guanidine hydrochloride in HBS was injected over the surface to strip the surface of non-covalently bound B Lymphocyte Stimulator. A blank surface (no HIS-B Lymphocyte Stimulator) was also prepared over flow cell 1 so that non-specific binding effects can be subtracted from the HIS-B Lymphocyte Stimulator binding curves.
(§2) The 96-well plate containing periplasmic scFvs was secured inside the BIAcore. Two ml of 4M Guanidine hydrochloride in HBS was placed in a rack inside the BIAcore for regeneration of the HIS-B Lymphocyte Stimulator surface between samples. The sensorgram was run over flow cells 1 and 2 at a flow rate of […].
T1 sequence (Q9Y275 71-285): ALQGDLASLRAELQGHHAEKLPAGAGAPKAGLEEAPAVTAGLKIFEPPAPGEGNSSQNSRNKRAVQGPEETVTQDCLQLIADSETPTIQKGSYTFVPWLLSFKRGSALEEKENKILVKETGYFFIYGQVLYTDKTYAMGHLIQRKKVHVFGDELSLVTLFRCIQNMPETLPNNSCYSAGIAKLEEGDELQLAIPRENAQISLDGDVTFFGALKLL

The target in assay [2] is T2, HIS-tagged B Lymphocyte Stimulator (human, UniProt Q9Y275 71-285).
T2 construct: Expressed in E. coli; also called HIS-B Lymphocyte Stimulator; histidine-tagged B Lymphocyte Stimulator; not shown: histidine tag from the pQE9 vector
The assay is described as follows: BIAcore, periplasmic scFv over high density HIS-BLyS surface. The protocol:
as §1, §2
T2 sequence (Q9Y275 71-285): as above

Changes are numbered by the printed parent chain.

B1: I080G07 (scFv)
scFv: QVQLVQSGAEVKKPGASVKVSCKASGYTFTSYAMHWVRQAPGQRLEWMGWINAGNGNTKYSQKFQGRVTITRDTSASTAYMELSSLRSEDTAVYYCAREGPGYYYGMDVWGQGTMVTVSSGGGGSGGGGSGGGGSALETTLTQSPGTLSLSPGERATLSCRASQAIGSNYLAWYQQKPGQPPSLLIYGASSRATGIPDRFSASGSGTDFTLTISRLEPEDFAVYYCQQYGSSITFGQGTRLEIKR
Take B1: in assay [1], the binding result was “binds”.

B2: I080G07 (scFv)
scFv: B1 scFv
B2: the binding result in assay [2] is reported as “binds”.

B3: I079F06 (scFv)
scFv: QVQLVESGGGLVQPGGSLRLSCAASGFTFSSYWMSWVRQAPGKGLEWVANIKQDGSEKYYVDSVKGRFTISRDNAKNSLYLQMNSLRAEDTAVYYCARDNLHAAFDIWGRGTLVTVSGGGGGSGGGGSGGGGSDIQMTQSPSTLSASIGDRVTITCRASEGIYHWLAWYQQKPGKAPKLLIYKASSLASGAPSRFSGSGSGTDFTLTISSLQPDDFATYYCQQYSNYPLTFGGGTKLEIKR
Take B3: the binding result in assay [1] was “binds”.

B4: I080G09 (scFv)
scFv: QVQLVQSGAEVKKPGASVRVSCKSSGYTFTNYGISWVRQAPGQGLEWMGWISNNNGKTYYAQKVQGRVTMTTDTSTSTDYMELRGLRSDDTAIYYCARDNGGGTIGFDYWGQGTLVTVSSGGGGSGGGGSGGGGSAQSVLTQPPSVSGAPGQRVTISCTGSSSNIGADYDVHWYQLLPGTAPKLLIYGNTNRPSGVPDRFSGSKSGTSASLTIAGLQAEDEADYYCQSYDSSLSGSVVFGGGTKLTVLG
As for B4, the binding result in assay [1] is given as “binds”.

B5: I084C11 (scFv)
scFv: GVQLEESGAEVKKPGASVKVSCKASGYTFTGYYMHWVRQAPGQGLEWMGWINPNSGGTNYAQKFQGRVTMTRDTSISTAYMELSRLRSDDTAVYYCARGNAWGAFDIWGRSTLVTVSSGGGGSGGGGSGGGGSQSVLTQPASVSGSPGQSITISCTGTSSDVGGYNYVSWYQQHPGKAPKLMIYEGSKRPSGVSNRFSGSKSGNTASLTVSGLQAEDEADYYCSSYTTRSTRVFGGGTKLTVLG
Take B5: in assay [2], the binding result is “binds”.

B6: I079B12 (scFv)
scFv: EVQLVQSRGGVVQPGRSLRLSCAASGLTFSSYGMHWVRQAPGKGLEWVAVISYDGRNKYYADSVKGRFTTSRDNSKNTLYLQMNSLRAEDTAVYYCAKWTSSGAFDIWGRGTLVTVSSGGGGSGGGGSGGGGSDIQMTQSPSTLSASIGDRVTITCRASEGIYHWLAWYQQKPGKAPKLLIYKASSLASGAPSRFSGSGSGTDFTLTISSLQPDDFATYYCHQYSNYPLTFGGGTKLEIKR
Turning to B6, in assay [1], the binding result was “binds”.

B7: I082D07 (scFv)
scFv: B6 scFv with H222Q
Regarding B7, the binding result in assay [1] is “binds”.

B8: I080D03 (scFv)
scFv: QVQLVQSGAELKQPGTSVKVSCKASGYSFSSYGVTWVRQAPGQGLEWMGWVSGNRGNTQYAQKFQDRVRMTTDTSTSTAYMELRSLRPDDTAVYFCARVGIKAAAVDNFEYWGRGTTVTVSSGGGGSGGGGSGGGGSAQSVLTQPPSASGTPGQRVTITCSGSSSNIGDYYVNWYQQVSGTTPKLIIYRDDQRPSGVPDRFSGSKSGASASLAISGLRSEDEANYFCAAWDDSLREFAFGTGTKVTVLG
B8: in assay [1], the binding result is recorded as “binds”.

B9: I080D03 (scFv)
scFv: B8 scFv
B9: the binding result in assay [2] was “binds”.

B10: I080A03 (scFv)
scFv: QVQLQQSGAELKQPGTSVKVSCKASGYSFSCYDVNWVRQAPGQGLEWMGRINPNSGNTHYAQKFQDRVTMTTDTSTSTAYMELNSLRPDDTAVYFCARVGIKAAAVDNFEYWGRGTTVTVSSGGGGSGGGGSGGGGSAQSVLTQPPSASGTPGQRVTITCSGSSSNIGDYYVNWYQQVSGTTPKLIIYRDDQRPSGVPDRFSGSKSGASASLAISGLRSEDEANYFCAAWDDSLREFAFGTGTKVTVLG
For the molecule B10, the binding result in assay [1] is “binds”.

B11: I083G03 (scFv)
scFv: B8 scFv with A92D
Turning to B11, the binding result in assay [1] was “binds”.

B12: I080A03 (scFv)
scFv: B10 scFv
Regarding B12, the binding result in assay [2] was “binds”.

B13: I083G03 (scFv)
scFv: B8 scFv with A92D
Take B13: the binding result in assay [2] is recorded as “binds”.

B14: I079B05 (scFv)
scFv: GVQLVESGGGLVKPGGSLRLSCATSGFRFSDYAMTWVRQAPGKGLEWVSSITGSGGGTHYAGSVRGRFTISRDNSKNTVYLQMNNLRPEDTAVYYCASFVLDYWGKGTLVTVSSGGGGSGGGGSGGGGSQSVLTQPASVSGSPGQSITISCTGTSSDVGGYNYVSWYQQHPGKAPKLMIYEGSKRPSGVSNRFSGSKSGNTASLTISGLQAEDEADYYCSSYTTRSTRVFGGGTKLTVLG
For B14, the binding result in assay [1] is “binds”.

B15: I080A08 (scFv)
scFv: QVTLKESGGDLVQPGGSLRLSCAASGLTFMSYAMTWVRQAPGKGLEWVSSISGSGDNTYYGDSVRGRFTISRDNSKNTLFLQLNSLRAEDTAFYYCAKVHSTGYAFENWGRGTLVTVSSGGGGSGGGGSGGGGSAQSVLTQPPSVSGAPGQRVTISCTGSSSNIGAGYNVHWYQQLPGTAPRLLISSNTNRPSGVPDRFSGSKSGTSASLAITGLQAEDEADYYCQSYDSSLSGFVFGTGTKVTVLG
For B15, the binding result in assay [2] is recorded as “binds”.
